# According to the RNAGym collection of RNA variant scans (doi:10.1073/pnas.2313332121):
# Variants at the floor of the assay were thinned out.
# B1: TPR 5TU (parent)
# chain: GGAUCUUCUCGAUCUAACAAAAAAGACAAAUCUGCCACAAAGCUUGAGAGCAUCUUCGGAUGCAGAGGCGGCAGCCUUCGGUGGCGCGAUAGCGCCAACGUUCUCAACUAUGACACGCAAAACGCGUGCUCCGUUGAAUGGAGUUUAUCAUG
# Variants of: B1
# Assay: polymerase ribozyme fitness, log enrichment relative to wild type (log ratio); higher = more active; in vitro selection for triplet polymerase activity
# Method in brief: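 One round of in vitro selection, in triplicate, was applied to PCR-built, transcribed mutant libraries of each subunit of a heterodimeric triplet polymerase ribozyme. The steps were annealing with a biotinylated primer, partner subunit and triplets, incubation frozen at −7 °C, gel excision of extended constructs, streptavidin-bead capture and RT-PCR. Fitness is the logarithm, base 2, of genotype enrichment over wild-type enrichment from inverse-variance-weighted replicate averages of Illumina-sequenced inputs and outputs, keeping genotypes with ≥10 input reads and ≥1 read per output.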
row,Variant,polymerase ribozyme fitness (log ratio)
1,GGAUCUUCUCGAUCUAACAAAAAAGACAAAUCUGCCACAAAGCUUGAGAACAUCUUCAGAUGCAGAGGCGGCAGCCUACGGUGGCGCGAUAGCACCAACGUUCUCAACUAUGACACGCAAAACGCGUGCUCCGUUGAAUGUAGUUUAUCAUG [G50A G58A U78A G94A G141U],≤ -4.2
2,GGAUCUUCUCGAUCUAACAAAAAAGACAAAUCUGCCACAAAGCUUGAGAACAUCUUCGGAUGCAGAGGCGGCAGGCUUCGGUGGCGCGAGAGCGCCAACGUUCUCAACUACGACACGCAAAAGGCGUGCUCCGUUGAAAGGAGCUUAUCAUG [G50A C75G U90G U111C C123G U139A U144C],≤ -4.2
3,GGAUCUUCUCGAUCUAACAAAAAAGACAAAUCUGCCACAAAGCUUGAGAACAUCUUCGGAUGCAGAGGCGGCAGCCUUCGGUGGCGCGAUAGCGCCAACGUUCUCCACUAUGACACGCAAAACGCGUGCUCCGUUGAAUGGAGUUUAUCAUG [G50A A106C],-2.72
4,GGAUCUUCUCGAUCUAACAAAAAAGACAAAUCUGCCACAAAGCUUGAGAACAUCUUCGGAUGCAGAGGCGGCAGCCUUCGGUGGCGCGAUAGCGCCAACGUUCUCAACUAUGACAUGCAAAACGCGUGCUCCGUUGAAUGGAGUUUAUCAUG [G50A C116U],-1.34
5,GGAUCUUCUCGAUCUAACAAAAAAGACAAAUCUGCCACAAAGCUUGAGAACGUCUUCGGAUGCAGAGGCGGCAGCCUUCGGUGGCGCGAUAGCGCCAACGUUCUCAACUAUGACACGCAAAACGCGUGCUCCGUUGAAUGGAGUUUAUCAUG [G50A A52G],-1.15
6,GGAUCUUCUCGAUCUAACAAAAAAGACAAAUCUGCCACAAAGCUUGAGAAUAUCGUCGGAUGCAGAGGCGGCAGCCUUCGGUGACGCGAUAGCGCCAACGUUCUCAACUAUGACACGCAAAACGCGUACUGCGUCGAAUGGAGUUUAUCAUG [G50A C51U U55G G84A G128A C131G U135C],≤ -4.2
7,GGAUCUUCUCGAUCUAACAAAAAAGACAAAUCUGCCACAAAGCUUGAGAACAUCUUACGAUGCAGAGGCGGCAGCCCUCGGUGGCGCCAUAGCGCCAACGUUCUCAACUAUGACACGCAAAACGCGUGCUCCGUUGAAAGGAGUUUAUCAUG [G50A C57A G58C U77C G88C U139A],≤ -4.2
8,GGAUCUUCUCGAUCUAACAAAAAAGACAAAUCUGCCACAAAGCUUGAGAACAUCUUCGGAUGCAAAGGCGGCAGCCUUCGGUGGCGCGAUAGCGCCAACGUCCUCAACUAUGACACGCAAAACGCGUGCUCCGUUGAAUGGAGUUUAUCAUG [G50A G65A U102C],-4.1
9,GGAUCUUCUCGAUCUAACAAAAAAGACAAAUCUGCCACAAAGCUUGAGAACAUCUUCGGAUGCAGAGGCGGCAGCCUUCGGUGGCGCGAUAGCGCCAACGUUGUCAACUAGGACACGCAAAUCGCGUGCUCCGUUGAAUGGAGUUUAUCAAG [G50A C103G U111G A122U U151A],≤ -4.2
10,GGAUCUUCUCGAUCUAACAAAAAAGACAAAUCUGCCACAAAGCUUGAGAACAUGUUCGGAUGCAGAGGCGGCAGCCUUCGGUGGCGCGAUAGCGCCAACGUUCUCAACUAUGACAUGCAAAACGCGUGCUCCGUUGAAUGGAGUUUAUCAUG [G50A C54G C116U],-2.17
11,GGAUCUUCUCGAUCUAACAAAAAAGACAAAUCUGCCACAAAGCUUGAGAACAUAUUCGGAUGCAGAGGCGGCAGCCUUCGGUGGCGAGAUAGCGCCAACGUUCUCAACUAUGACACGCAAAACGCGUACUCCGUUGAAUGGAGUUUAUCAUG [G50A C54A C87A G128A],≤ -4.2
12,GGAUCUUCUCGAUCUAACAAAAAAGACAAAUCUGCCACAAAGCUUGAGAACAUCUUCGGAUGCAGAGGCGGCUGCCUUCGGUGGCGCGAUAGGGCCAACUUUCUCAGCCAUGACACGCAAAACGCGUGCUCCGUUGAAUGGCGUUUAUCUUG [G50A A73U C93G G100U A107G U109C A142C A150U],≤ -4.2
13,GGAUCUUCUCGAUCUAACAAAAAAGACAAAUCUGCCACAAAGCUUGAGAACAUCUUCGGAUGCAGAGGCGGCAGCCUUCGGUGGCGCGAUAGCGCCAACGUUCUCAACUAUGACACGAUAAACGCGUGCUCCGUUGAAUGGAAUUUAUCAUG [G50A C118A A119U G143A],-2.71
14,GGAUCUUCUCGAUCUAACAAAAAAGACAAAUCUGCCACAAAGCUUGAGAACAUCUUCGGAUGCAGAGGCGGCAGCAUUCGGUGGCGAGAUAGCGCCGACGUUCUCAACUAUGACACGUAAAACGCGUGCUCCGUUGAAUGCAGUUUAUCAUG [G50A C76A C87A A97G C118U G141C],≤ -4.2
15,GGAUCUUCUCGAUCUAACAAAAAAGACAAAUCUGCCACAAAGCUUGAGAACAUCUUCGGAUGCAGAGGCGGCAGCCUUCGGUGGCGCGAUAGCGCCAAGGUUCUCAACUAUGACACGCAAAACGCGUGCUCCGUUGAAUGGAGUUUAUCAUG [G50A C99G],-3.05
16,GGAUCUUCUCGAUCUAACAAAAAAGACAAAUCUGCCACAAAGCUUGAGAACAUCUUCUGAUGCAGAGGCGGCAGCCUUCGGUGGCGCGAUAGCGUCAACGUUCUCAACUAUGACACGGAAAACGCGUGCUCCGUUGAAUGGAGUUUAUCAUG [G50A G58U C95U C118G],-1.92
17,GGAUCUUCUCGAUCUAACAAAAAAGACAAAUCUGCCACAAAGCUUGAGAACAUCUUCGGAUGCAGAGGCGGUAGCCUUCGGUGGAGCGAUAGCGCCAACGUUCUCAACUAUGACACGCAAAACGCGUGCUCCGUUGAAUGGAGUUUAUCAUG [G50A C72U C85A],-2.69
18,GGAUCUUCUCGAUCUAACAAAAAAGACAAAUCUGCCACAAAGCUUGAGAACUUCUUCGGAUGCAGAGGCGGCAGCGUUCGGUGGCGCGAUAGCGCCAACGUUCUCAACUAUGACACGCAAAACGCGUGCUCCGUUGAAUGGAGUUUAUCGUG [G50A A52U C76G A150G],≤ -4.2
19,GGAUCUUCUCGAUCUAACAAAAAAGACAAAUCUGCCACAAAGCUUGAGAACAUCUUCGGAUGCAGAGGCGGCGGCCUUCGGUGGCGCGAUAGCGCCAACGUUCUCAACUAUGACACGCAAAACGCGUGCUCCGUUGAAUGGAGUUUAUCGUG [G50A A73G A150G],≤ -4.2

row,Variant,polymerase ribozyme fitness (log ratio)
1,GGAUCUUCUCGAUCUAACAAAAAAGACAAAUCUGCCACAAAGCUUGAGAACAUCUUCGGAUGCAGAGGCGGCAGCCUUCGGUGGCGCGAUAGCGCCAAAGUUCUCAACUAUGACACGCAAAACGCGUGCUCCGUUGAAUGGAGUAUAUCAUG [G50A C99A U145A],-3.7
2,GGAUCUUCUCGAUCUAACAAAAAAGACAAAUCUGCCACAAAGCUUGAGAACAUCUUCGGAUGCAGAGGCGGCAACCUCCGGUGGCGCGAUAGCGCCAACGUUCUCAACUAUGGCACGCAAAACCCGUGCUCCGUUGAAUGGAGUUUAUCAUG [G50A G74A U78C A113G G124C],≤ -4.2
3,GGAUCUUCUCGAUCUAACAAAAAAGACAAAUCUGCCACAAAGCUUGAGAACAUCUUCGGAUGCAGAGGCGGCAGCCUUCGGUGGUGCGAUAGCGCCAACGUUCUCAACUAUGACACGCAAAACGCGUGCUCCGUUGAAUGGAGUUUAUCAUG [G50A C85U],-1.67
4,GGAUCUUCUCGAUCUAACAAAAAAGACAAAUCUGCCACAAAGCUUGAGAACAUCUUCGGAUGCAGAGGCGGCAGCCUUCGGUGGCGCGAUAGCGCCAACGUUCUCAACUAUGACACGCAAAACGCGUGCUCCGUUGAAUGGUGUUUAUCAUG [G50A A142U],-2.45
5,GGAUCUUCUCGAUCUAACAAAAAAGACAAAUCUGCCACAAAGCUUGAGAACAUCUUCGGAUGCAGAGGCGCCAGCCUUCGGUGGCGCGAUUGCGCCAACGUUCUCAACUAUGACACGCAAAACGCGUGCUCCGUUGAAUGGAGUUUAUCUUG [G50A G71C A91U A150U],≤ -4.2
6,GGAUCUUCUCGAUCUAACAAAAAAGACAAAUCUGCCACAAAGCUUGAGAACAUCUUCGGAUGCAGAGGCGGCAGCCUUCGGUGGCGUGAUAGCGCCAAUGUUCUCAACUAUGACACGCAAAACGCGUGCUCCGUUGAAUGGAGUUAAUCAUG [G50A C87U C99U U146A],-3.96
7,GGAUCUUCUCGAUCUAACAAAAAAGACAAAUCUGCCACAAAGCUUGAGAACAUCUUCGGAUGCAGAGGCGGCAGCCUUCGGUGGCGCGAUAGCGCUAACGUUCUCAACUAUGACACGCAAAACGGGUGCUCCGUUGAAUGGAGUUUAUCAUG [G50A C96U C125G],-2.14
8,GGAUCUUCUCGAUCUAACAAAAAAGACAAAUCUGCCACAAAGCUUGAGAACAUUUUCGGAUGCAGAGGCGGCAGCCUUCGGUGGCGCGAUAGCGCCAACGUUCUCAACUAUGACACGCAAAACGCGUGCUCCGUUGAAUGGAGUUUAUCAUG [G50A C54U],-1.32
9,GGAUCUUCUCGAUCUAACAAAAAAGACAAAUCUGCCACAAAGCUUGAGAACAUCUUCGGAUGCAGAGGCGGCAGCCUUCGGUGGCGCGAUAGCGCCAACGUUCUCAACUAUGACACGCAAAACGCGUGCUCCGUUGAAUGGAGUUUAUCGUG [G50A A150G],-3.11
10,GGAUCUUCUCGAUCUAACAAAAAAGACAAAUCUGCCACAAAGCUUGAGAACAUCUUCGGAUGCAGAGGCGGCAGCCUUCGGUGGCGCGAUAGCGCCAACGUUCUCAACUAUGACACGGAAAACGCGUGCUCCGUUGAAUGGAGUUUAUCAUG [G50A C118G],-2.21
11,GGAUCUUCUCGAUCUAACAAAAAAGACAAAUCUGCCACAAAGCUUGAGAACAUCUUCGGAUGCAGAGGCGGCAGCCUUCGGUGGCGCGAUAGAGCCAACGUUCUCAACUAUGACACGCAAAACGCGUGCUCCGUUGAAUGGAGUUUAUCAUG [G50A C93A],-3.33
12,GGAUCUUCUCGAUCUAACAAAAAAGACAAAUCUGCCACAAAGCUUGAGAACAUCUUCGGAUGCAGAGGCGGCAGUUAUCGGUGGCGCGAUAGCGCAAACGUUCUCAACUGUGACACGCAAAACGCGUGCUCCGUUGAAUGGAGUUUAUCAUG [G50A C75U C76U U77A C96A A110G],≤ -4.2
13,GGAUCUUCUCGAUCUAACAAAAAAGACAAAUCUGCCACAAAGCUUGAGAACAUCUUCGGAUGCAGAGGCGGCAGCCUUCGGUGGCGCGAUAGCGCCAACGUUCUCAACUAUGACAUGCAAUACGCGUGCUCUGUUGAAUGGAGGUUAUCAUG [G50A C116U A121U C132U U144G],-1.82
14,GGAUCUUCUCGAUCUAACAAAAAAGACAAAUCUGCCACAAAGCUUGAGAACAUCUUCGGAUGCAGAGACGGCAGCCUUCGGUGGCGCGAUAGCGACAACGUUCUCAACUAUGACACGCAAAACGCGUGCUCCGUUGAAUCGAGUUUAUCAUG [G50A G68A C95A G140C],≤ -4.2
15,GGAUCUUCUCGAUCUAACAAAAAAGACAAAUCUGCCACAAAGCUUGAGAACAUCUUCGGAUGCAGAGGCGACAGCCUUCGGUGGCGCGAUAGCGUCAACGUUCUCAACUAUGACACGCAAAACGCGUGCUCCGUUGAAAGGAGUUUAUCAUG [G50A G71A C95U U139A],≤ -4.2
16,GGAUCUUCUCGAUCUAACAAAAAAGACAAAUCUGCCACAAAGCUUGAGAACAUCUUCGGAUGCAGAGGCGGCAGCCUUCGGUGGCGCGAUAGCGCCAACGUUCUCAACUAUGACACGCAAAUCGCGUGCUCCGUUGGAUGGAGUUUAUCAUG [G50A A122U A137G],-2.6
17,GGAUCUUCUCGAUCUAACAAAAAAGACAAAUCUGCCACAAAGCUUGAGAACAUCUUCGGAUGCAGGGGCGGCAGCCUUCGGUGGAGCGAUAGCGCCAACGUUCUCGACUAUGACACGCAAAACGCGUGCUCCGUUGAAUCGAGUUUAUCAUG [G50A A66G C85A A106G G140C],≤ -4.2
18,GGAUCUUCUCGAUCUAACAAAAAAGACAAAUCUGCCACAAAGCUUGAGAACAUCUUCGGAUGCACAGGCGGCAGCGUUCGGUGGCGCGAUACCGCCAACAUUCUCAACUAUGACACGCAAAACGGGUGCUCCGUUGAAUGGAGUUUAUCAUG [G50A G65C C76G G92C G100A C125G],≤ -4.2
19,GGAUCUUCUCGAUCUAACAAAAAAGACAAAUCUGCCACAAAGCUUGAGAACAUCUUCGGAUGCAGAGGCGGCAGCCUUCGGUGGCGCGAUAGCGGCAACGUUCUCAACUAUGACUCGCAAAACGCGUGCUCCGUUGAAUGGAGUUUAUCAUG [G50A C95G A115U],≤ -4.2
